US20230340160A1 (published 2023)

B1: “1+1 IgG scFab, one armed inverted” (anti-MCSP/anti-huCD3) (bispecific antibody)
heavy 1: DIVLTQSPSSLSASLGDRVTISCSASQGIRNYLNWYQQRPDGTVKLLIYYTSSLHSGVPSRFSGSGSGTDYSLTISNLEPEDIATYYCQQYSKLPWTFGGGTKLEIKRTVAAPSVFIFPPSDEQLKSGTASVVCLLNNFYPREAKVQWKVDNALQSGNSQESVTEQDSKDSTYSLSSTLTLSKADYEKHKVYACEVTHQGLSSPVTKSFNRGECSGGGSGGGSEGGGSEGGGSEGGGSEGGGSGGGSGEVQLQESGPGLVKPSQSLSLTCSVTGYSITSGYYWNWIRQFPGNKLEWMGYITYDGSNNYNPSLKNRISITRDTSKNQFFLKLNSVTTEDTATYYCADFDYWGQGTTLTVSSASTKGPSVFPLAPSSKSTSGGTAALGCLVKDYFPEPVTVSWNSGALTSGVHTFPAVLQSSGLYSLSSVVTVPSSSLGTQTYICNVNHKPSNTKVDKKVEPKSCDGGGGSGGGGSGAQDKTHTCPPCPAPEAAGGPSVFLFPPKPKDTLMISRTPEVTCVVVDVSHEDPEVKFNWYVDGVEVHNAKTKPREEQYNSTYRVVSVLTVLHQDWLNGKEYKCKVSNKALPAPIEKTISKAKGQPREPQVCTLPPSRDELTKNQVSLSCAVKGFYPSDIAVEWESNGQPENNYKTTPPVLDSDGSFFLVSKLTVDKSRWQQGNVFSCSVMHEALHNHYTQKSLSLSPGK
heavy 2: not shown
light: not shown
B2: “2+1 IgG Crossfab” (anti-MCSP/anti-huCD3); VH/VL exchange (LC007/V9) (bispecific antibody)
heavy 1: DIQMTQSPSSLSASVGDRVTITCRASQDIRNYLNWYQQKPGKAPKLLIYYTSRLESGVPSRFSGSGSGTDYTLTISSLQPEDFATYYCQQGNTLPWTFGQGTKVEIKSSASTKGPSVFPLAPSSKSTSGGTAALGCLVKDYFPEPVTVSWNSGALTSGVHTFPAVLQSSGLYSLSSVVTVPSSSLGTQTYICNVNHKPSNTKVDKKVEPKSCGGGGSGGGGSEVQLQESGPGLVKPSQSLSLTCSVTGYSITSGYYWNWIRQFPGNKLEWMGYITYDGSNNYNPSLKNRISITRDTSKNQFFLKLNSVTTEDTATYYCADFDYWGQGTTLTVSSASTKGPSVFPLAPSSKSTSGGTAALGCLVKDYFPEPVTVSWNSGALTSGVHTFPAVLQSSGLYSLSSVVTVPSSSLGTQTYICNVNHKPSNTKVDKKVEPKSCDKTHTCPPCPAPEAAGGPSVFLFPPKPKDTLMISRTPEVTCVVVDVSHEDPEVKFNWYVDGVEVHNAKTKPREEQYNSTYRVVSVLTVLHQDWLNGKEYKCKVSNKALGAPIEKTISKAKGQPREPQVCTLPPSRDELTKNQVSLSCAVKGFYPSDIAVEWESNGQPENNYKTTPPVLDSDGSFFLVSKLTVDKSRWQQGNVFSCSVMHEALHNHYTQKSLSLSPGK
heavy 2: not shown
light 1: DIVLTQSPSSLSASLGDRVTISCSASQGIRNYLNWYQQRPDGTVKLLIYYTSSLHSGVPSRFSGSGSGTDYSLTISNLEPEDIATYYCQQYSKLPWTFGGGTKLEIKRTVAAPSVFIFPPSDEQLKSGTASVVCLLNNFYPREAKVQWKVDNALQSGNSQESVTEQDSKDSTYSLSSTLTLSKADYEKHKVYACEVTHQGLSSPVTKSFNRGEC
light 2: EVQLVESGGGLVQPGGSLRLSCAASGYSFTGYTMNWVRQAPGKGLEWVALINPYKGVSTYNQKFKDRFTISVDKSKNTAYLQMNSLRAEDTAVYYCARSGYYGDSDWYFDVWGQGTLVTVSSASVAAPSVFIFPPSDEQLKSGTASVVCLLNNFYPREAKVQWKVDNALQSGNSQESVTEQDSKDSTYSLSSTLTLSKADYEKHKVYACEVTHQGLSSPVTKSFNRGEC
notes: also called 2+1 IgG Crossfab (V9)
B3: “1+1 IgG scFab, one armed” (anti-MCSP/anti-huCD3) (bispecific antibody)
heavy 1: not shown
heavy 2: not shown
light: B2 light 1
B4: “2+1 IgG Crossfab”; CL/CH1 exchange (LC007/anti-CD3) (bispecific antibody)
heavy 1: not shown
heavy 2: EVQLQESGPGLVKPSQSLSLTCSVTGYSITSGYYWNWIRQFPGNKLEWMGYITYDGSNNYNPSLKNRISITRDTSKNQFFLKLNSVTTEDTATYYCADFDYWGQGTTLTVSSASTKGPSVFPLAPSSKSTSGGTAALGCLVKDYFPEPVTVSWNSGALTSGVHTFPAVLQSSGLYSLSSVVTVPSSSLGTQTYICNVNHKPSNTKVDKKVEPKSCDKTHTCPPCPAPEAAGGPSVFLFPPKPKDTLMISRTPEVTCVVVDVSHEDPEVKFNWYVDGVEVHNAKTKPREEQYNSTYRVVSVLTVLHQDWLNGKEYKCKVSNKALGAPIEKTISKAKGQPREPQVCTLPPSRDELTKNQVSLSCAVKGFYPSDIAVEWESNGQPENNYKTTPPVLDSDGSFFLVSKLTVDKSRWQQGNVFSCSVMHEALHNHYTQKSLSLSPGK
light 1: B2 light 1
light 2: QAVVTQESALTTSPGETVTLTCRSSTGAVTTSNYANWVQEKPDHLFTGLIGGTNKRAPGVPARFSGSLIGDKAALTITGAQTEDEAIYFCALWYSNLWVFGGGTKLTVLSSASTKGPSVFPLAPSSKSTSGGTAALGCLVKDYFPEPVTVSWNSGALTSGVHTFPAVLQSSGLYSLSSVVTVPSSSLGTQTYICNVNHKPSNTKVDKKVEPKSC
notes: also called 2+1 IgG Crossfab (anti-CD3)
B5: “2+1 IgG Crossfab, inverted”; CL/CH1 exchange (LC007/anti-CD3) (bispecific antibody)
heavy 1: not shown
heavy 2: B4 heavy 2
light 1: B2 light 1
light 2: B4 light 2
notes: also called 2+1 IgG Crossfab, inverted (anti-CD3)
B6: CD3/MCSP “2+1 IgG Crossfab, inverted”; CL/CH1 exchange (LC007/V9) (bispecific antibody)
heavy 1: not shown
heavy 2: B4 heavy 2
light 1: B2 light 1
light 2: DIQMTQSPSSLSASVGDRVTITCRASQDIRNYLNWYQQKPGKAPKLLIYYTSRLESGVPSRFSGSGSGTDYTLTISSLQPEDFATYYCQQGNTLPWTFGQGTKVEIKSSASTKGPSVFPLAPSSKSTSGGTAALGCLVKDYFPEPVTVSWNSGALTSGVHTFPAVLQSSGLYSLSSVVTVPSSSLGTQTYICNVNHKPSNTKVDKKVEPKSC
notes: also called 2+1 IgG Crossfab, inverted (V9)

How the values were obtained:
[1] = biological target: T1, human CD3 expressed on Jurkat cells (human, UniProt P07766 23-207); experiment: flow cytometry on Jurkat cells, 50 nM
T1 construct: CD3 complex on Jurkat cells (ATCC TIB-152); also called huCD3
T1 sequence (P07766 23-207 limits assumed): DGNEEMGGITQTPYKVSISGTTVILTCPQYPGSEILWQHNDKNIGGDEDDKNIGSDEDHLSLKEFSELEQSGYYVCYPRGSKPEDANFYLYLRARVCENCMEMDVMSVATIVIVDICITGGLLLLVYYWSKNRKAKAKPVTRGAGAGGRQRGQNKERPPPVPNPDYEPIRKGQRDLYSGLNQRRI
Description: (§1) Binding of the different bispecific constructs to CD3 on Jurkat cells (ATCC #TIB-152), and the respective tumor antigen on target cells, was determined by FACS. Briefly, cells were harvested, counted and checked for viability. 0.15 - 0.2 million cells per well (in PBS containing 0.1% BSA; 90 µl) were plated in a round-bottom 96-well plate and incubated with the indicated concentration of the bispecific constructs and corresponding IgG controls (10 µl) for 30 min at 4° C. For a better comparison, all constructs and IgG controls were normalized to same molarity. After the incubation, cells were centrifuged (5 min, 350 × g), washed with 150 µl PBS containing 0.1% BSA, resuspended and incubated for further 30 min at 4° C. with 12 µl/well of a FITC-or PE-conjugated secondary antibody. Bound constructs were detected using a FACSCantoII (Software FACS Diva). The “(scFv)₂” molecule was detected using a FITC-conjugated anti-His antibody (Lucerna, #RHIS-45F-Z). For all other molecules, a FITC- or PE-conjugated AffiniPure F(ab′)2 Fragment goat anti-human IgG Fcγ Fragment Specific (Jackson Immuno Research Lab # 109-096-098 / working solution 1:20, or #109-116-170 / working solution 1:80, respectively) was used. Cells were washed by addition of 120 µl/well PBS containing 0.1% BSA and centrifugation at 350 × g for 5 min. A second washing step was performed with 150 µl/well PBS containing 0.1% BSA. Unless otherwise indicated, cells were fixed with 100 µl/well fixation buffer (BD #554655) for 15 min at 4° C. in the dark, centrifuged for 6 min at 400 × g and kept in 200 µl/well PBS containing 0.1% BSA until the samples were measured with FACS CantoII. EC50 values were calculated using the GraphPad Prism software.
(§2) In a first experiment, different bispecific constructs targeting human MCSP and human CD3 were analyzed by flow cytometry for binding to human CD3 expressed on Jurkat, human T cell leukaemia cells, or to human MCSP on Colo-38 human melanoma cells.

[2] = biological target: T2, human MCSP expressed on tumor cells (human, UniProt Q6UVK1 30-2322); experiment: flow cytometry on Colo-38 cells, 50 nM
T2 construct: whole, on cells; On Colo-38, WM266-4, MV-3 or MDA-MB-435 cells, as named in each row; also called huMCSP; Melanoma-associated Chondroitin Sulfate Proteoglycan
T2 sequence (Q6UVK1 30-2322): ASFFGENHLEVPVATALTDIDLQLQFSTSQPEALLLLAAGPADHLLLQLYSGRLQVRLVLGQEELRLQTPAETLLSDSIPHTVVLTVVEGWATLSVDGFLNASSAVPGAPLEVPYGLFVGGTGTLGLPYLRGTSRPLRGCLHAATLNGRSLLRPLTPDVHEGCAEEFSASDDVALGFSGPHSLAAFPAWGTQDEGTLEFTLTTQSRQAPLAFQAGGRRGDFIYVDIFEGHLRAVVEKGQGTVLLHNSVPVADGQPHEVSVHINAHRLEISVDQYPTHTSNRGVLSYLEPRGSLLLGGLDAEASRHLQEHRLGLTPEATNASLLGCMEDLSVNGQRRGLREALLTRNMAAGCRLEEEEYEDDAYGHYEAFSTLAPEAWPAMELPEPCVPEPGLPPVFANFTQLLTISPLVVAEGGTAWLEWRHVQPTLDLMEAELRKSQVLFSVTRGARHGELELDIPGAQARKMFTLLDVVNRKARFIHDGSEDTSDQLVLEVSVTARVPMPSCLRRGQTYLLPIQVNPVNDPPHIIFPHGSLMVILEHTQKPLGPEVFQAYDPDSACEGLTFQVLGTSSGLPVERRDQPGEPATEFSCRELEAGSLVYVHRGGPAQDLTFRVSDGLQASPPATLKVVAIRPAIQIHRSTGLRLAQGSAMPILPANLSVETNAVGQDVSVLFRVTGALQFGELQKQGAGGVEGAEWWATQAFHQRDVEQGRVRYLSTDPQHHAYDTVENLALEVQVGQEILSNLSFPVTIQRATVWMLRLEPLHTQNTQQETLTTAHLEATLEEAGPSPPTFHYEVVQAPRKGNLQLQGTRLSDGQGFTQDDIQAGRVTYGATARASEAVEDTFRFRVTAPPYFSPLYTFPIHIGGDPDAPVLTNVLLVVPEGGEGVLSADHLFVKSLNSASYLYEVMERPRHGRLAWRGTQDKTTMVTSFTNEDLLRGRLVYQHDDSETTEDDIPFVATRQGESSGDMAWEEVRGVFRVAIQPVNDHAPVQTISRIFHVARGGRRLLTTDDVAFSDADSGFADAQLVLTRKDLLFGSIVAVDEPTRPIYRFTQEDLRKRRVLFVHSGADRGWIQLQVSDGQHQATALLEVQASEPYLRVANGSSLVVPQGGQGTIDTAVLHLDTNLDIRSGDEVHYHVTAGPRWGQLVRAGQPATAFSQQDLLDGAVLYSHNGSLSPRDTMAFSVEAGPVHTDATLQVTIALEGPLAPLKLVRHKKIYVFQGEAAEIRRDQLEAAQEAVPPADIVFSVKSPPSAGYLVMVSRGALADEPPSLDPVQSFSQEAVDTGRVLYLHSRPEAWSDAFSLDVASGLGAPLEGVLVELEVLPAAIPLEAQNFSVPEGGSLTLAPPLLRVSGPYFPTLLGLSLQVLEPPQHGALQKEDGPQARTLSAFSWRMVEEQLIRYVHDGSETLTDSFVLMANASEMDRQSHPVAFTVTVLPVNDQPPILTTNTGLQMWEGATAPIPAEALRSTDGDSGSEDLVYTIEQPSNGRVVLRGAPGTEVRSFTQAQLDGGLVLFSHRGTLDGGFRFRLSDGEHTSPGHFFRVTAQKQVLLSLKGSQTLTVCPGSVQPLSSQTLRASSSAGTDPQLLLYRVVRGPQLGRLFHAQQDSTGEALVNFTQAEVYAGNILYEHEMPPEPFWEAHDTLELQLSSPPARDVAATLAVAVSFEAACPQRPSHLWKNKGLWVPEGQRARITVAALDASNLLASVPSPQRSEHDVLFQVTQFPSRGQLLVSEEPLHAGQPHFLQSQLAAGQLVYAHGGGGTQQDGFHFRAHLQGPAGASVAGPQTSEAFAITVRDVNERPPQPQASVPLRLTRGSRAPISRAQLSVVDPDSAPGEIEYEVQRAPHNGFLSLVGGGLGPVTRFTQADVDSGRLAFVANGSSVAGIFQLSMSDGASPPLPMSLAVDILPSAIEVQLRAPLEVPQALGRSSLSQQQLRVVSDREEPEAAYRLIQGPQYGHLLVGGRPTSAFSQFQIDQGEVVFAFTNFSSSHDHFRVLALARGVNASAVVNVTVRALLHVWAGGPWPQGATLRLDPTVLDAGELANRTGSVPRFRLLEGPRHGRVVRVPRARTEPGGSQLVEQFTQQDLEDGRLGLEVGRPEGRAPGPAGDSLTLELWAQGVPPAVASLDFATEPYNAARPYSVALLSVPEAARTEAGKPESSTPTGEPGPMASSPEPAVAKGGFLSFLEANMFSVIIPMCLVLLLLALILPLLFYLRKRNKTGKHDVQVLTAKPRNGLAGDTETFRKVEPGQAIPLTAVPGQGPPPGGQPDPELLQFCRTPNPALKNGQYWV
Description: as §1, §2

[3] = biological target: T2, human MCSP expressed on tumor cells; experiment: cell-based or functional assay
[4] = biological target: T2, human MCSP expressed on tumor cells; experiment: cell-based or functional assay; remark: listed apart in the source
[5] = biological target: T1, human CD3 expressed on Jurkat cells; experiment: flow cytometry on Jurkat cells
Description: as §1
As a control, the equivalent maximum concentration of the corresponding IgGs and the background staining due to the labeled 2ndary antibody (goat anti-human FITC-conjugated AffiniPure F(ab′)2 Fragment, Fcγ Fragment-specific, Jackson Immuno Research Lab # 109-096-098) were assessed as well.

[6] = biological target: T2, human MCSP expressed on tumor cells; experiment: flow cytometry on WM266-4 cells
Description: as §1
In a final experiment, binding of the “2+1 IgG Crossfab” (SEQ ID NOs 5, 23, 215, 217) and the “2+1 IgG Crossfab, inverted” (SEQ ID NOs 5, 23, 215, 219) constructs to human CD3, expressed by Jurkat cells, and to human MCSP, expressed by WM266-4 tumor cells was determined. As depicted in FIG. 58A and FIG. 58B the binding to human CD3 was reduced for the “2+1 IgG Crossfab, inverted” compared to the other construct, but the binding to human MCSP was comparably good.

Row | Binder | binding result [1] | binding result [2] | EC50 of killing (LDH release) of MV-3 cells, human PBMCs, E:T 10:1, 21 h [3] | EC50 of killing (LDH release) of WM266-4 cells, human PBMCs, E:T 10:1, 21 h [3] | EC50 [pM] of killing (LDH release) of MV-3 cells, human PBMCs, E:T 10:1, about 24 h [4] | EC50 [pM] of killing (LDH release) of WM266-4 cells, human PBMCs, E:T 10:1, about 24 h [4] | EC50 [5] | EC50 [6]
1 | B1 | binds | binds |  |  |  |  |  | 
2 | B2 |  |  | 0.0092 nM | 0.0331 nM | 10 pM | 12.4 pM | 1.66 nM | 0.95 nM
3 | B3 | binds | binds |  |  |  |  |  | 
4 | B4 |  |  |  |  | 11 pM | 11.3 pM | 10.3 nM | 3.1 nM
5 | B5 |  |  |  |  | 3 pM | 7.1 pM | 32 nM | 3.4 nM
6 | B6 |  |  |  |  | 4.1 pM | 3.7 pM | 6.1 nM | 0.57 nM
